Laboratory results as given in patent publication US12404345B2, “Humanized antibodies against iRHOM2” (SCIRHOM GMBH, priority 2021, dated 2025).

Target: T1, endogenous iRhom2 on THP-1 cells (Homo sapiens, UniProt Q6PJF5)
T1 construct: THP-1 cells, a human monocytic cell line endogenously expressing both iRhom2 and iRhom1; host or cells: THP-1
T1 sequence (Q6PJF5 1-856): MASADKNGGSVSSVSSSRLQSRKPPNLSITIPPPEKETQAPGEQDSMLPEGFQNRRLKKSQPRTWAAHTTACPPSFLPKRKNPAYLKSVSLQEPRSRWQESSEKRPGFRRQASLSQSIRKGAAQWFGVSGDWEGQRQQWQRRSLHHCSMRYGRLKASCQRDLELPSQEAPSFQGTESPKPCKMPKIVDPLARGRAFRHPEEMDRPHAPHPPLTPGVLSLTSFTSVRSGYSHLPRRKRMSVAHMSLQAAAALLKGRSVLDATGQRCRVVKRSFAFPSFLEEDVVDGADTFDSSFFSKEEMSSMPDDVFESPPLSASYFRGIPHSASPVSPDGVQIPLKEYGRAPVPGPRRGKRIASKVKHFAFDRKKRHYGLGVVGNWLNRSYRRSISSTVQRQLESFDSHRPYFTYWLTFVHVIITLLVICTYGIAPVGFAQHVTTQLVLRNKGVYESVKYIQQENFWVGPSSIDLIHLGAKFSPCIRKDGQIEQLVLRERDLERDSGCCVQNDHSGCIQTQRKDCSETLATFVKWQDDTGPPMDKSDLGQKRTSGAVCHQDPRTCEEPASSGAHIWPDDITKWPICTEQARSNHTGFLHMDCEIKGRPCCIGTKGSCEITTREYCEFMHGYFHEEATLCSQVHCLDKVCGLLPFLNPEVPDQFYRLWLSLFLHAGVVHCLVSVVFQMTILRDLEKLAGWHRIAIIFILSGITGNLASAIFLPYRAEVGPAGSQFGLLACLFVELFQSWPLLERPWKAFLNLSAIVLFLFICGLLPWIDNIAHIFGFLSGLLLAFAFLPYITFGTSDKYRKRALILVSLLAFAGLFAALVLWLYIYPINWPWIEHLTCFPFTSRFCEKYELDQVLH
Experiment: FACS binding to THP-1 cells endogenously expressing iRhom2 and iRhom1
Details: antibody at 3 μg/ml
Description: In this study, binding specificity analyses of the humanized antibody 42-B-02 as a representative example of the antibodies of the invention in cell lines endogenously expressing iRhom2 were performed. The studies were conducted on RPMI-8226 cells, a human B lymphocytic cell line endogenously expressing iRhom2 but being endogenously negative for iRhom1, on THP-1 cells, a human monocytic cell line endogenously expressing both iRhom2 and iRhom1 and on RH-30 cells, a human […] cell line endogenously negative for iRhom2 but endogenously expressing iRhom1.
In brief, human RPMI-8226 cells (Deutsche Sammlung von Mikroorganismen und Zellkulturen, Germany), THP-1 cells (American Type Culture Collection, USA) and RH-30 cells (Deutsche Sammlung von Mikroorganismen und Zellkulturen, Germany) were harvested with 10 mM EDTA in PBS, washed and resuspended in FACS buffer (PBS, 3% FBS, 0.05% sodium azide), and seeded in Nunc U-bottom 96-well plates (Thermo Fisher Scientific, USA) at approximately 2×10^5 cells per well. In order to pellet cells and remove supernatants, the plates were centrifuged at 1,500 rpm and 4° C. for 3 minutes. […] Finally, cells were resuspended in 150 μl per well of FACS buffer and analyzed using a BD Accuri™ C6 Plus flow cytometer (Becton Dickinson, Germany).

B1: 42-B-02: humanized antibody binding human iRhom2; HCVD SEQ ID NO 33, LCVD SEQ ID NO 37 (antibody, V domains shown)
VH: QVTLRESGPALVKPTQTLTLTCTFSGFSLSTFGRGVGWIRQPPGKALEWLAHIWWDDEKYYNSALKSRLTISKDTSKNQVVLTITNMDPVDTATYYCARIQNYGSNYWYFDVWGQGTLVTVSS
VL: AIQLTQSPSSLSASVGDRVTITCRASSRISYMFWYQQKPGKAPKVLIYDTSNLASGVPSRFSGSGSGTDYTLTISSLQPEDFATYYCQQWNSYPLTFGQGTKLEIK
modifications: antibody sequences
With B1 the “binding to THP-1 cells (endogenously expressing iRhom2 and iRhom1)” value was “strong binding”.
